Results taken from paper PMC4933246, “Alanine Expansions Associated with Congenital Central Hypoventilation Syndrome Impair PHOX2B Homeodomain-mediated Dimerization and Nuclear Import*” (The Journal of Biological Chemistry, 2016).

Biological target: the molecule itself
Experiment: two-hybrid; mammalian two-hybrid (CheckMate, Promega) in HeLa cells; GAL4 BD fusion (pBIND) and VP16 AD fusion (pACT), 80 fmol each, with 160 fmol pG5LUC; Dual-Luciferase assay

B1: PHOX2A fused to GAL4 BD or VP16 AD (natural protein)
chain: not shown
notes: PHOX2A, human; Each copy carries either GAL4 BD or VP16 AD; also called GAL4 BD-PHOX2A; VP16 AD-PHOX2A; source: mammalian two-hybrid fusion, transfected HeLa cells
With B1 the “luciferase activity relative to that of the PHOX2B fusion constructs” value was > 2 fold.
